Consider two molecules from patent US20260201058A1 (SICHUAN HUIYU PHARMACEUTICAL, published 2026).

The target in assay [1] is T1, human PD-L1 protein (ACRO, PD1-H5258) (human, UniProt Q9NZQ7 19-238).
T1 construct: Bought protein; also called Human PDL1-Fc
In words: Carterra HC30M chip, nanobody captured via anti-DYKDDDDK, PD-L1 as analyte. The text has this: (§1) Kinetic constants were obtained by fitting with Carteria software.

In assay [2] the target is T2, monkey PD-L1 protein (Kactus Biosystems, PDL-CM210) (monkey).
T2 construct: Bought protein; also called Monkey PDL1-Fc
The assay is described as above.
Description: as §1

The target in assay [3] is T3, mouse PD-L1 protein (ACRO, PD1-M5251) (mouse, UniProt Q9EP73 19-238).
T3 construct: Bought protein; also called Mouse PDL1-Fc
The description is as above.
Description: as §1

Assay [4] has as its target T4, mouse PD-L1 on CHO-mPDL1 cells (mouse, UniProt Q9EP73 19-290).
T4 construct: whole, on cells
Briefly: flow cytometry competition on CHO-mPDL1 cells, competitor mouse PD-1-hFc 1.25 ug/mL. The protocol: (§2) CHO-huPDL1, CHO-mPDL1, and CHO-cynoPDL1 cells were respectively taken, washed with PBS, and resuspended with 1% BSA. Then 1×10⁵ cells per well were added to a 96-well V-bottom plate. […] After washing with PBS, PE anti-human Fc (Biolegend, 410708) was added and incubated on ice for 30 min. After washing with PBS, a flow cytometer was used for detection. IC₅₀ was fitted with experimental data by GraphPad Prism.
Background: A flow cytometer gives signals particle by particle.

For assay [5], the target named is T5, human PD-L1 on CHO-huPDL1 cells (human, UniProt Q9NZQ7 19-290).
T5 construct: whole, on cells; also called CHO-hPDL1
In words: flow cytometry competition on CHO-huPDL1 cells, competitor human PD-1-hFc 1.25 ug/mL. The protocol:
as §2

In assay [6] the target is T6, monkey PD-L1 (Cyno-PD-L1) on cells (monkey (cyno)).
T6 construct: whole, on cells; also called CHO-cynoPDL1; 293F-cyno PD-L1 cells
Briefly: flow cytometry competition on CHO-cynoPDL1 cells, competitor monkey PD-1-hFc 1.25 ug/mL. The protocol:
as §2

In assay [7] the target is T7, human PD-L1 on GS-C2 cells (cells overexpressing human PD-L1, GenScript, M00613) (human, UniProt Q9NZQ7 19-290). Briefly: cell-based or functional assay.
The target in assay [8] is T7, human PD-L1 on GS-C2 cells (cells …). In words: flow cytometry on GS-C2 cells. The protocol:
Then PE-labeled goat anti-Flag fluorescent secondary antibody was added, and incubated on ice for 30 min. After washing with PBS, a flow cytometer was used for detection. EC₅₀ was fitted with the experimental data by GraphPad Prism.

In assay [9] the target is T1, human PD-L1 protein (ACRO, PD1-H5258). Briefly: SPR (Carterra LSA), nanobody on NiHC200M chip via His-Tag, PD-L1 as analyte. The protocol:
The measurement was conducted using a capture kinetics process. The test antibody was immobilized on the surface of the NiHC200M chip via His-Tag. After several rounds of blank buffer injection and stabilizing the detection baseline, human PD-L1 protein was injected as the analyte. Each round of injection consisted of 2 minutes of baseline, 8 minutes of binding, and 20 minutes of dissociation. After subtracting the reference point and zero concentration signal (Double Reference) from the original measurement data, the binding curve was fitted by Carterra LSA Kinetics software and the kinetic parameters were calculated.

Assay [10] addresses T7, human PD-L1 on GS-C2 cells (cells …). In words: flow cytometry competition on GS-C2 cells, competitor human PD-1-mFc 1.25 ug/mL. From the text: (§3) After washing with PBS, a flow cytometer was used for detection. IC₅₀ was fitted with experimental data by GraphPad Prism.
Assay [11] has as its target T6, monkey PD-L1 (Cyno-PD-L1) on cells. In words: flow cytometry competition on 293F-cyno PD-L1 cells, competitor monkey PD-1-hFc 1.25 ug/mL.
Description: as §3

T7 sequence (Q9NZQ7 19-290, one chain of several): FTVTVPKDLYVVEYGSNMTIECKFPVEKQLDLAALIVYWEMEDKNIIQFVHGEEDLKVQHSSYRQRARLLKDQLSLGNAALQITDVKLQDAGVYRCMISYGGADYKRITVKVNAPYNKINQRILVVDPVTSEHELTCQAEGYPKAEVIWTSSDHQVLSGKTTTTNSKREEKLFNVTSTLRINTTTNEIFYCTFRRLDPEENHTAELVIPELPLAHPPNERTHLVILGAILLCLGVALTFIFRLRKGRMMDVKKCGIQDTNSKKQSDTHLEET
T1 sequence (Q9NZQ7 19-238): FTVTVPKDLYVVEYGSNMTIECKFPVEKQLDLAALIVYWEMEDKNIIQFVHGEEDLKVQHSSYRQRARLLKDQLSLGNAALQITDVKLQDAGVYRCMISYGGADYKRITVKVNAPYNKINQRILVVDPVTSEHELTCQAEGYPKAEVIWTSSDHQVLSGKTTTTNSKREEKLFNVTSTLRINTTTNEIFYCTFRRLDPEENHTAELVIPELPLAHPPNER
T4 sequence (Q9EP73 19-290): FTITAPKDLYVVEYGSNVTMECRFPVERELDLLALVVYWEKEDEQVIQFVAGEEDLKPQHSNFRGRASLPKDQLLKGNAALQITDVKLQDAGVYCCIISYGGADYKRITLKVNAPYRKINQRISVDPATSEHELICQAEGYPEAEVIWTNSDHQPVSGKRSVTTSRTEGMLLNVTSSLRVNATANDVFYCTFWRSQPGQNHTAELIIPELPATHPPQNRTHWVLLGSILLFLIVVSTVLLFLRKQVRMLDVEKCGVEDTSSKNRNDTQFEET
T3 sequence (Q9EP73 19-238): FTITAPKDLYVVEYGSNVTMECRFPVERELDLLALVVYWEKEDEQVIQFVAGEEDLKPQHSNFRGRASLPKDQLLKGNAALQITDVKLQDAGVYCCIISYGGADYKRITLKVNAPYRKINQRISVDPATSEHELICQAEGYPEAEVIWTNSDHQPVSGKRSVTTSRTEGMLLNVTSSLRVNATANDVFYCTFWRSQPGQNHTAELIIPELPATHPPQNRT
T5 sequence (Q9NZQ7 19-290): as the sequence (Q9NZQ7 19-290, one chain of several) above

B1: 4A7 nanobody (VHH)
VHH: EVQLVESGGGLVQAGDSLRLGCAASGRTFSTNVMGWFRQAPGKEREFVSAISRAGSTYSADSVKGRFTISRDNAENTVYLQMNSLKPEDTAVYYCAAGSSPTAIFGKSGMDYWGKGTLVTVSS
notes: Prokaryotically expressed VHH; also called anti-PD-L1 nanobody 4A7
One may read the Kd as a measure of binding affinity in units of concentration. The IC50 is the point on the concentration scale where inhibition reaches its midpoint. On to B1, for which the Kd in assay [1] is 147 nM; in assay [2] it was 221 nM; in assay [3], 99.1 nM. Also, the IC50 in assay [4] is 1.83 nM; in assay [5], 1.35 nM; in [6], 3.55 nM.

B2: 260-7-B11 nanobody (VHH)
VHH: EVQLVESGGGLVQAGGSLRLSCAASGGTFLTYGMGWFRQAPGKEREFVAAINWSGSMTNYADSVKGRSTISRDNARNTVYLQMISLKPEDTAVYYCAAKTGAVAYIQKNEYDYWGQGTQVTVSS
notes: Prokaryotically expressed VHH
As a reminder, the EC50 is the concentration giving half of the maximal effect. For B2, the “EC50 (nM), blocking of T cell PD-1/PD-L1 signaling pathway (GS-C2 cells with Jurket-NFAT-PD1 cells, luciferase)” value in [7] came out at 15.3 nM. Also, in [8], the EC50 was determined as 0.739 nM. The molecule further gave an equilibrium dissociation constant (Kd) in assay [9] of 0.0243 nM. The IC50 in [10] turned out to be 0.396 nM; in assay [11] it was 0.627 nM.
